B1: GEMININ (human, full-length, MBP tag removed) (natural protein, UniProt O75496 1-209, looked up)
chain: MNPSMKQKQEEIKENIKNSSVPRRTLKMIQPSASGSLVGRENELSAGLSKRKHRNDHLTSTTSSPGVIVPESSENKNLGGVTQESFDLMIKENPSSQYWKEVAEKRRKALYEALKENEKLHKEIEQKDNEIARLKKENKELAEVAEHVQYMAELIERLNGEPLDNFESLDNQEFDSEEETVEDSLVEDSEIGTCAEGTVSSSTDAKPCI
notes: The His6 tag lies with MBP at the N-terminus, before the TEV site of pETMBP_1, so it was probably removed with MBP; also called GMNN; source: E. coli BL21Star (DE3), purified (Ni-NTA HisTrap HP, TEV digestion, size exclusion); not shown: MBP, N-terminal, cleaved

Common to all, as to conditions: both partners purified
For assay [1], the target named is T1, MBP-fused full-length SIX3 (SIX3 without aa 1-78) (human, UniProt O95343 79-332).
T1 construct: SIX3, human, without the N-terminal homopolymeric region (aa 1-78, GenBank AF049339); A TEV site lies between the tags and SIX3; also called MBPSIX3; source: E. coli BL21Star (DE3), purified (Ni-NTA HisTrap HP, size exclusion); not shown: MBP, N-terminal, kept
T1 sequence (looked up): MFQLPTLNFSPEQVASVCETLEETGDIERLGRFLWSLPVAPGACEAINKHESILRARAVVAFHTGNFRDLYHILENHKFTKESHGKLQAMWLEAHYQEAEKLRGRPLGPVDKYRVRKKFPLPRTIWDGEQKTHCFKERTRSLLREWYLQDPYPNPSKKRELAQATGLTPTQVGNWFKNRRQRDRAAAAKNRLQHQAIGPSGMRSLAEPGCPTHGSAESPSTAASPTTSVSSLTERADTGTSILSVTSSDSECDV
The experiment in a line: ITC; Nano ITC LV, 25 °C, PBS-TCEP with 300 mM NaCl (results: 437 mM NaCl); 200 μM GEMININ (or its coiled-coil region) in the syringe, 10 μM MBPSIX3 (or MBP alone) in the cell; independent binding sites model; GEMININ-to-MBP control subtracted.

In assay [2] the target is T1, MBP-fused full-length SIX3 (SIX3 …). The experiment in a line: SPR; Biacore T200, GEMININ (1370 RU) immobilised by amine coupling on a CM5 chip; MBP fusions or MBP alone as analyte; 25 °C; PBS-TCEP (3.5 mM TCEP) with 350 mM NaCl (results: 437 mM NaCl); 30 μl/min; apparent KD from a steady-state fit.
The target in assay [3] is B1. The description is as above.

Values joined by “and” are separate entries in the source; they are usually repeats but may differ in a detail not shown here. Equal values may be shown once.

Broadly, the stoichiometry N is a count of units in the complex or per binding partner.

In the case of B1, in assay [1], the Kd was 3.4 µM and 3.41 µM; the dH was -75.8 kcal/mol; the “stoichiometry N” value was 0.55. Moreover, in assay [2], the Kd was 3.19 µM.

B2: MBP-fused SIX domain of SIX3 (domain or fragment)
chain: MFQLPTLNFSPEQVASVCETLEETGDIERLGRFLWSLPVAPGACEAINKHESILRARAVVAFHTGNFRDLYHILENHKFTKESHGKLQAMWLEAHYQEAEKLRGRPLGPVDKYRVRKKFPLPRTIWD
modifications: Assayed as an N-terminal His6-MBP fusion (left out). Start follows the printed deletion of aa 1-78; end is derived from the stop-codon primer (T-I-W-D-stop), just before the homeobox at 206.
On to B2, for which the Kd in assay [3] was 19.5 µM and 19.6 µM.

For the origin of these results see paper PMC6895700, “SIX3 and SIX6 interact with GEMININ via C-terminal regions” (Biochemistry and Biophysics Reports, 2019).
